The nanobody polyreactivity screen of Harvey et al. (2022)

Experiment: yeast display, Sf9 membrane polyspecificity reagent, FACS + sequencing; frameworks hold sequencing errors
How it was run: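 Synthetic nanobody libraries on Saccharomyces cerevisiae BJ5465 were galactose-induced for 36–48 hours, stained 1 hour at 4 °C with 10% biotinylated, detergent-solubilized Sf9 membrane reagent and enriched on streptavidin microbeads. FACS then separated cells into low and high (top ~1%) gates by anti-HA (expression) and streptavidin (reagent binding) fluorescence. Genes were colony-PCR amplified, MiSeq 2 × 250 sequenced and CDR-length filtered. A clone's polyreactivity label is that of its gate of origin.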

QVQLVESGGGLVQAGGSLRLSCAASGRTFAVYAMGWYRQAPGKERELVAAITYGGGRTSYADSVKGRFTISRDYAKNTVYFQMKRLKPEDTAVYSCAADYYGTDYDYWGQGTQVTVSS
polyreactivity (PSR sort gate): low polyreactivity

QVQLVESGGGLVQAGGSLRLSCAASGRIFAIYAMGWYRQAPGKERELVAGITYSAGSTYYADSVKGRFTISRDNAKNTVYLQMNSLKREDTAVYYCAALEYTSHRYGYDYWGQGTQVTVSS
polyreactivity (PSR sort gate): low polyreactivity

QVQLEESGGGLVQAGCSLRLSCAASGSTFVRYAMGWYRQAPGKERELVAAISWSGASTYYADSVKGRFTISRDNAKNTVYLQMNSLKPEDTAVYYCAARSRWYDAAGYQKYYYWGQGSQVTVSS
polyreactivity (PSR sort gate): high polyreactivity

QVQLVESGGGLVQAGGSLRLSCAASGFTFYRYDMGWYRQAPGQERELVAAITNNGGNTYYADSVKGRFTISRDNAKNTVYLQMNSLKPEDTAVYYCAARTWGRYDYWGQGTQVTVSS
polyreactivity (PSR sort gate): high polyreactivity

QVQLVESGGGLVQAGGSLRLCCAASGRIFDYNAMGLYRQAPGKERELVAAINSGGSTYADSVKGRFTISRDNAKNTVYLQMNSLKPEDTAVYYCANSLGQTDWEYDSWGQGTQVTVSS
polyreactivity (PSR sort gate): low polyreactivity

QVQLVESGGGLVQAGGSLRLSCAASGFIFGLYAMGWYRQAPGKERELVAAISSGGSTYYADSVKGRFTISRDNAKNTVYLQMNSLKPEDTAVYYCAAYYVYSEYDYWGQGTQVTVSS
polyreactivity (PSR sort gate): high polyreactivity

QVQLVESGGGLVQAGGSLRLSCAASGITFGVNTMGWYRQAPGKERELVAAITWRGGSTYYADSVKGRFTISRDNAKNTVYLQMNSLKPEDTAVYYCAAVDFTREISGVTYGFDYCGQGTQVTVSS
polyreactivity (PSR sort gate): low polyreactivity

QVQLVESGGGLVQAGGSLRLSCAASGFTLYDNAMGWYRQAPWKERELVAAISWSGGSTYYADSVKGRFTISRDNAKNTVYLQMNRLKPEDTAVYYCATDFVSYAEGRMEYWGLGTQVTVSS
polyreactivity (PSR sort gate): low polyreactivity

QVQLVESGGGLVQAGGSLRLSCAASGSTFAYNAMGWYRQAPGKERELVATITSGGSTSYADSVKGRFTISRDNAKNTVYLQMNSLKPEDTAVYYCAARKVTKSTYNYWGQGTQVTVSS
polyreactivity (PSR sort gate): low polyreactivity

QVQLVESGGGLVQAGGSLRLSCAASGITLVGNAMGWYRQAPGKERELVADINWSDDSTYYADSVKGRFTISRDNAKNTVYLQMNSLKQEDTAVYYCAADVSWRLYNRSSEYDYWGQGTQVTVSS
polyreactivity (PSR sort gate): low polyreactivity

QVQLVESGGGLVQAGGSLRLSCAASGRTIRGNAMGWYRQAPGKERELVAAIRWNGGSTYYADSVKGRFTISRDNAKNTVYLQMNSLKPEDSAVSYCAVSYWYSRYDYWGQGTQVTVSS
polyreactivity (PSR sort gate): high polyreactivity

QVQLVESGGGLVQAGGSLRLSCAASGSIIGRYTMGWYRQAPGKERELVAAISRSGGSTYYADSVKGRFTISRDNAKNTVYLQMNSLKPEDTAVYYCAKRTYTPRGERLYSSYDYWGQGTQVTVSS
polyreactivity (PSR sort gate): high polyreactivity

QVQLVESGGGLVQAGGSLRLSCAASGTTFYNYAMGWYRQAPGQERELVAAISKTGGSTYYADSVKGRFTISRDNAKNTVYLQMNSLKPEDTAVYYCNAVALYPYTTYHYWGQGTQVTVSS
polyreactivity (PSR sort gate): high polyreactivity

QVQLQESGSGLVQAGGSLRLGCAASGNISDAGYMGWYRQAPGKEREFVAAIAAGSNTNYADSVKGRFTISRDNAKNTVYLQLNSLKPEVTAVFYCAVASYARVQYEYWGQGTQVTVNS
polyreactivity (PSR sort gate): low polyreactivity

QVQLVESGGGLVQAGGSLRLSCAASGSIFPSYAMGWYRQAPGKERELVAAISVSGGSTYYADSVKGRFTISRDTAKNTVYLQMNSLKPEDTAVYYCAAQHGYPRYYYWGQGTQVTVSS
polyreactivity (PSR sort gate): high polyreactivity

QVQLVESGGGLVQAGGSLRLSCAASGHTFRGYDMGWYRQATGKQRELFASISSSGGSTYYADSVKGRFTISRDNAKNTVYLQMNSLKPEDTAVYYCATRDGVVDTEPDQSYAVELDYWGQGTQVTVSS
polyreactivity (PSR sort gate): low polyreactivity

QVQLVESGGGLVQAGGSLRLSCAASGRIFTYYTMGWYRRAPGKEREFVAAISWSGTSTYYADSVKGRFTISRDNAKNTVYLQMNSLKPEETAVFNCAARNWYSRYDYWGQGTQVTVSS
polyreactivity (PSR sort gate): high polyreactivity

QVQLVESGGGLVQAGGSLRLSCAASGSTFGWNAMGWYRQAPGKERELVAAITADDDDTYYADSVKGRFTISRDNAKNTVYLQMNSLKPEDTAVYYCATEKWFWYGDWYDYWGQGTQVTLSS
polyreactivity (PSR sort gate): high polyreactivity

QVQLVESVGGLVQAGGSLRLSCAPSGRTFYIYAMGRYRQAPGKERELVAAISISGSTYYADSVKGRFTISRDNAKNTVYLQMNSLKPEDTAVYYCAADYLDSTYGYVYGWDDYLGQGTQVTVSS
polyreactivity (PSR sort gate): low polyreactivity

QVQLVESGGGLVQAGGSLRLSCAASGSIFVSYARGWYRQAPGKERELVAAITGRTGSTYYADSVKGRFTISRDNAKNTVYLQMNSLKAEDTGVYYCAARHKQHNRYDYWGQGTKVTVSS
polyreactivity (PSR sort gate): low polyreactivity

QVQLVESGGGLVQAGGSLRLSCAASGSIFRHNAMGWYRQAPGKERELVAAITSRGGSTYYADSVKGRFTISRDNAKNTVYLQMNSLKPEDTAVYYCAAGGHYYSSPGYNYWGQGTQVTVSS
polyreactivity (PSR sort gate): high polyreactivity

QVQLVESGGGLVQAGGSLRLSCAASGSIFLGYVMGWSRQAPGKERELVAAITNSGGSTYYADSVKGRFTISRDNAKNTVYLQINSLKPEDTAVYYCAADSITSKNQGLDYDYWGQGTQVTVSS
polyreactivity (PSR sort gate): low polyreactivity

QVQLVESGGGLVQAGGSLRLSCAASGRIIYKNAMGWYRQAPGKETELVAAINSSGGSTYYGDSVKGRFTISRDNAKNTVYLQMNCLKPEDSAVYYCAAYDYGRFGKLNYWGQGSQVTVSS
polyreactivity (PSR sort gate): low polyreactivity

QVQLVESGGGLVQAGGSLRLSCAASGFTFTENVMGWYRQAPGKEREFVAAITYIGGRTYYADSVKGRFTISRDNAKNTVYLQMNSLKPEDTAVYYCAADWAYYVASYLYYTFDYWGQGTQVTVSS
polyreactivity (PSR sort gate): low polyreactivity

QVQLVESGGGLVLAGGSLRLSCAASGSTFVQNAMGWYRQAHGKERELVAAITFGGGSTYYADSVKGRFTISRDNAKNTVYLQMNSLKPEDTAVYYCAVEVGNPQLAYSYDYWGQGTQVTVSS
polyreactivity (PSR sort gate): low polyreactivity

QVQLVESGGGLVQAGGSLRLSCAASGITFYEYAMGCYRQAPGTERDFVAAIDHGDSSTYYADSVKGRFTISRDNAKNTVYLQMNSLKPEDTAVYYCNADPYYDYSLNWGDYWGQGTQVTVSS
polyreactivity (PSR sort gate): low polyreactivity

QVQLVESGGGLVQAGGSLRLSCAASGSTFGQYVMAWYRQAPGKERELVAAISSGDSTNYADSVKGRFTISRDNAKNTVYLQMNSLKPEDTAVYYCAAARRPTYWPVYPYFGYEYWGQGTQVTVSS
polyreactivity (PSR sort gate): low polyreactivity

QVQLVESGGGLVQAGGSLRLSCAASGSTFWYNAMGWYRQAPGKERELVAAITQSGTRTYYADSVKGRFTISRDNAKNTVYLQMNSLKPEDTAVYYCAARGREWYYWGQGTQVTVSS
polyreactivity (PSR sort gate): high polyreactivity

QEQLVESGGGLVQAGGSLRLSCAAYGSTYNSYVMGWNRQAPVKERELVAAISTSGGRTYYADSVKGRFTISRDNAKNTVYLKMISLKPEDTAVYYCNRVFLKYYESTHWRDYWGQGTKVTVSS
polyreactivity (PSR sort gate): high polyreactivity

QVQLVESGGGLVQAGGSLRLSCAASRIIFWFYAMGWYRQAPGKERELVAAISGDGDSTYYADSVKGRFTISRDNAKNTVYLQMNSLIPEDTAVYYCAAEWDPVFATDEDDYWGQGTQVTVSS
polyreactivity (PSR sort gate): low polyreactivity

QVQLVESGGGLVQAGGSLRLSCAASGSIFNKYAMGWYRQAPGKERELVAAISVSGTRTYYADSVKGRFTISRDNAKNTVYLQMNSLKPEDTAVYYCAAGGVGAYDYWGQGTQVTVSS
polyreactivity (PSR sort gate): high polyreactivity

QVQLVESGGGLVQAGGSLRLSCAASGSNIGLNAMGWSRQAPGKEREWVAAITRISGRTRYADSVKRRFTISRDNAKNTVSLQMNSLKPEDTAVYYCDARFQSTNGHKYYYWGQGTQVTVSS
polyreactivity (PSR sort gate): high polyreactivity

QVQLVESGGGLVQAGGSLRLSCAASGRTFKDYAKGWYRHAPGKERELVARINGSGGSTYYADSVKGRFTISRDTAKNSVYLQMNSLKPEDTAVYYCGKDARRRTSILSGGRHYDYWGQGTQVTVSS
polyreactivity (PSR sort gate): low polyreactivity

QVQLVESGGGLVQAGGSLRLSCAASGSTFQDYAMGWYRQAPGKERELVAAISKRGGRTYYADSVKGRFTISRDNAKNTVYLQMNSLKPEETAVYYCNTYPVPGGVTYSYTGFDYWGQGTQVTVSS
polyreactivity (PSR sort gate): high polyreactivity

QVQLVESGGGLVQAGGSLSLSCAASGFIFNYYVMGWYRQAPGKERELVATISWRGGRTYYADSVKGRFTISRDNAKNTVYLQMNSLKPEDTAVYYCAKDSYYFTRYDYWGQGTQVTVSS
polyreactivity (PSR sort gate): low polyreactivity

QVQLVESGGGLVQAGGSLRLSCAASGRTIGSNVMGWYRQAPGKERELVAAITYSGVSTYADSVKGRFTISRDNAKNTVYLQINSLKPEDTAVYYCNAYPTTYYQQYDYWGQGTQVTVSS
polyreactivity (PSR sort gate): low polyreactivity

QVQLVESGGGLVQAGGSLRLSCAASGFTLVKYVMVWYMQAPGKEREFVATIRRRGGNTYYADSVKGRFTISRDNAKNTVYLQMNSLKPEDTAVYYCAAKKRSDLRTGDMEYWGQGTQVTVSS
polyreactivity (PSR sort gate): high polyreactivity

QVQLVESGGGLVQAGGSLRLSCAASGSTFGWYAMGWYRQAPGKERELVASITSGGRTNYADSVKGRFTISRDNAKNTVYLQMNSLKTEDTAVYYCAKRVYGSNSLYDYWGQGTQVTVSS
polyreactivity (PSR sort gate): low polyreactivity

QVQLVESGGGLVQAGGSLRLSCAASGIIFGYYAMGWYRQAPGKERELVAAISRRGGSTYYADSVKGRFTISRDNAKNTVYLQMNSLKPEDTAVYYCAAVELRLSTPDMESWGQGTQVTVSS
polyreactivity (PSR sort gate): high polyreactivity

QVQLEDSGGGLVQAGGSLRLSCAASGSTFILNAMGWYRDAPGKERELVATISSSDTSTYYADSVKGRFTISRDNAKNTVYLQMNSLKPEDTAVYYCNADYYTTSYLQRVYHYGVEYDYWGQGTQVTVSS
polyreactivity (PSR sort gate): low polyreactivity
